Here are results for seven molecules from patent US20090208994A1, “GENETIC INCORPORATION OF 3-AMINOTYROSINE INTO REDUCTASES” (THE SCRIPPS RESEARCH INSTITUTE, priority 2007, published 2009).

The test system of one data set is DH10B E. coli cells. The data set is described as follows: Toxicity of NH2Y: growth in liquid GMML medium and on agar plates. The data set is classed as cell-based. An excerpt:
Toxicity and uptake of NH2Y. Evolution of an NH2Y-specific aminoacyl-tRNA synthetase (RS) requires that NH2Y is taken up by E. coli, that it is not toxic, and that it is not incorporated into proteins by any endogenous RSs. All three requirements were met by NH2Y. […] The presence of DTT however, caused cells to grow at a rate 25-35% more slowly than those in the presence of only NH2Y or absence of NH2Y/DTT.

Data set [1] concerns the target T1, E. coli ribonucleotide reductase (α2β2 complex) (Escherichia coli, UniProt P00452).
T1 construct: made in house; host or cells: E. coli DH10B for the NH2Y-α2s
The settings on record: previous studies; inactivation of wt α2β2 by N3ADP/dGTP; 20 s time scale; cited from earlier work.

The conditions of data set [2]: pH 7; cited from earlier work.
The next data set addresses T2, wt β2, P69924.
T2 chain: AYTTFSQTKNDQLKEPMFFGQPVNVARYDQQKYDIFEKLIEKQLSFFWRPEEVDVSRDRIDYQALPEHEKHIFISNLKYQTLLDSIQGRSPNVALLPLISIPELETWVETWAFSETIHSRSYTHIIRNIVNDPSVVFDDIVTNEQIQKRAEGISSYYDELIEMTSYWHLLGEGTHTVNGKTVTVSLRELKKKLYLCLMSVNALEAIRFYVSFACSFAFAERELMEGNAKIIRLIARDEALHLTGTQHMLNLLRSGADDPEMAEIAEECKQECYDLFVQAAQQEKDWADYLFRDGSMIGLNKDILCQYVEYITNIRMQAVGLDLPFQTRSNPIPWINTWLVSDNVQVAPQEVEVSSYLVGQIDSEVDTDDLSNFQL

A further data set concerns the target wt β2 (E. coli) (UniProt P69924). The data set is described as follows: cell-based or functional assay.

As for `Nc1cc(C[C@H](N)C(=O)O)ccc1O` [NH2Y, 3-aminotyrosine], the “effect on growth rates” value with DH10B E. coli cells (NH2Y (1 mM) or NH2Y/DTT in GMML medium and agar plates) was “not significantly affected”.

On to `O[C@H](CS)[C@H](O)CS` (racemic) [DTT, DL-dithiothreitol], for which the “cells grow more slowly (rate)” value with DH10B E. coli cells (presence of DTT (0.1 mM) vs. only NH2Y or absence of NH2Y/DTT) was 25-35%.

Consider `[N-]=[N+]=N[C@@H]1[C@H](O)[C@@H](COP(=O)(O)OP(=O)(O)O)O[C@H]1n1cnc2c(N)ncnc21` [N3ADP, 2′-Azido-2′-deoxyadenosine-5′-diphosphate], for which, in data set [1], the “initial Y122• lost (forming an equivalent amount of N•)” value is listed as 50-60%.

With `N[C@@H](Cc1ccc(O)c(O)c1)C(=O)O` [DOPA, 3,4-dihydroxyphenylalanine], the “reduction potential lower than that of Y” value in data set [2] was 260 mV.

B1: Y730NH2Y-α2 (protein)
chain: MNQNLLVTKRDGSTERINLDKIHRVLDWAAEGLHNVSISQVELRSHIQFYDGIKTSDIHETIIKAAADLISRDAPDYQYLAARLAIFHLRKKAYGQFEPPALYDHVVKMVEMGKYDNHLLEDYTEEEFKQMDTFIDHDRDMTFSYAAVKQLEGKYLVQNRVTGEIYESAQFLYILVAACLFSNYPRETRLQYVKRFYDAVSTFKISLPTPIMSGVRTPTRQFSSCVLIECGDSLDSINATSSAIVKYVSQRAGIGINAGRIRALGSPIRGGEAFHTGCIPFYKHFQTAVKSCSQGGVRGGAATLFYPMWHLEVESLLVLKNNRGVEGNRVRHMDYGVQINKLMYTRLLKGEDITLFSPSDVPGLYDAFFADQEEFERLYTKYEKDDSIRKQRVKAVELFSLMMQERASTGRIYIQNVDHCNTHSPFDPAIAPVRQSNLCLEIALPTKPLNDVNDENGEIALCTLSAFNLGAINNLDELEELAILAVRALDALLDYQDYPIPAAKRGAMGRRTLGIGVINFAYYLAKHGKRYSDGSANNLTHKTFEAIQYYLLKASNELAKEQGACPWFNETTYAKGILPIDTYKKDLDTIANEPLHYDWEALRESIKTHGLRNSTLSALMPSETSSQISNATNGIEPPRGYVSIKASKDGILRQVVPDYEHLHDAYELLWEMPGNDGYLQLVGIMQKFIDQSISANTNYDPSRFPSGKVPMQQLLKDLLTAYKFGVKTLYYQNTRDGAEDAQDDLVPSIQDDGCESGACKI
For B1, in the data set with wt β2, P69924, the “kobs / Ampl, 1st phase, without CDP/ATP” value is reported as “No changes observed”; the “kobs / Ampl, 2nd phase, without CDP/ATP” value is “No changes observed”; the “rate constant of formation of NH2Y• at 325 nm (fast phase)” value came out at 13.6 ± 0.1 s⁻¹; the “rate constant of formation of NH2Y• at 325 nm (slow phase)” value is 2.5 ± 0.1 s⁻¹. In addition, in the data set with wt β2, P69924, the “rate constant of loss of Y122• at 410 nm (fast phase)” value amounted to 12.0 ± 0.1 s⁻¹ and the “rate constant of loss of Y122• at 410 nm (slow phase)” value amounted to 2.4 ± 0.1 s⁻¹. Besides, in the data set with wt β2, P69924 (in 1/s), the “kobs, 1st phase (stopped-flow UV-vis, Y122• loss / NH2Y730• formation, with CDP/ATP)” value was 12.8 ± 0.8, 20 ± 1 and the “kobs, 2nd phase (stopped-flow UV-vis, Y122• loss / NH2Y730• formation, with CDP/ATP)” value is given as 2.5 ± 0.1, 19 ± 1.

B2: Y730NH2Y-α2 (enzyme, E. coli, UniProt P00452 1-761, looked up)
chain: B1 chain
modifications: 3-aminotyrosine (NH2Y) in place of Tyr at 730 (E. coli RNR numbering)
As to B2, in the data set with wt β2 (E. coli), the Ampl, 1st phase (% of total initial Y122• trapped, with CDP/ATP) stood at 20%; the Ampl, 2nd phase (% of total initial Y122• trapped, with CDP/ATP) came out at 19%; the EPR spin quantitation at 10 s: share of remaining spin in the new signal (NH2Y730•), with CDP/ATP was determined as 53%; the total initial Y122• consumed at 2 s amounted to 39%.

B3: Y731NH2Y-α2 (enzyme, E. coli, UniProt P00452 1-761, looked up)
chain: B1 chain
modifications: 3-aminotyrosine (NH2Y) in place of Tyr at 731 (E. coli RNR numbering)
In the data set with wt β2 (E. coli), B3 came in with an Ampl, 1st phase (% of total initial Y122• trapped, with CDP/ATP) of 24%; an Ampl, 2nd phase (% of total initial Y122• trapped, with CDP/ATP) of 11%; an EPR spin quantitation at 10 s: share of remaining spin associated with NH2Y731•, with CDP/ATP of 45%; a total initial Y122• consumed at 2 s of 35%.
